# Measured values as given in patent US11926665B2, “Methods of treating cancer with anti-TIM-3 antibodies” (TESARO, INC., priority 2017, dated 2024).
# Experiments:
# [1] = tested on: advanced or metastatic solid tumors; assay: Phase 1 dose escalation, best tumor response; type: in vivo, human
# From the text: (§1) This example describes a multicenter, open-label, first-in-human Phase 1 study evaluating a TIM-3 binding agent (an anti-TIM-3 antibody), in patients with tumors. Specifically the dosage effects in patients with advanced solid tumors treated with a particular TIM-3 binding agent. A TIM-3 binding agent (TSR-022) as described in the present study comprises a humanized monoclonal anti-TIM-3 antibody comprising a heavy chain whose amino acid sequence comprises SEQ ID NO: 3 and a light chain whose amino acid sequence comprises SEQ ID NO:4 are evaluated. This anti-TIM-3 antibody utilizes a human IGHG4*01 heavy chain gene, and a human IGKC*01 kappa light chain gene, as scaffolds. Further, there is a single Ser to Pro point mutation in the hinge region of the IgG4 heavy chain at the canonical S228 position.
# Patients were included with histologically or cytologically proven advanced (unresectable) or metastatic solid tumor and who had disease progression after treatment with available therapies that are known to confer clinical benefit or who are intolerant to other known treatment(s).
# The study comprises several parts: dose escalation and cohort expansion. Part 1a of the study (dose escalation) is intended, inter alia, to evaluate the safety, PK, and PDy profile, tolerability and anti-cancer effect of the anti-TIM-3 antibody. A modified 3+3 design was used for dose escalation at 0.03 mg/kg, 0.1 mg/kg, 0.3 mg/kg, 1.0 mg/kg, 3 mg/kg, and 10 mg/kg and higher every 2 weeks (Q2W) with the dose of the TIM-3 antibody not to exceed 20 mg/kg. […]
# The best response observed was also evaluated in efficacy evaluable patients (e.g., patients who received at least two doses and either had at least one post-baseline assessment or had discontinued treatment due to clinical progression prior to post-baseline tumor assessment. Stable disease (5/25 patients) and partial response (1/25 patients at 10 mg/kg) were observed as the best response in patients with rectal, thyroid, neuroendocrine, or head and neck cancer, or with soft tissue sarcoma.
# [2] = Phase 1 study, serum pharmacokinetics after first dose; type: in vivo; conditions: patients, first dose 0.03-10 mg/kg, monitored for two weeks, FIG. 6A
# From the text: as §1
# The study comprises several parts: dose escalation and cohort expansion. Part 1a of the study (dose escalation) is intended, inter alia, to evaluate the safety, PK, and PDy profile, tolerability and anti-cancer effect of the anti-TIM-3 antibody. […]
# After patients received the first dose of TSR-022 at various levels (0.03-10 mg/kg), the TSR-022 concentration in serum was monitored for two weeks and the pharmacokinetic (PK) behaviors were characterized.
# [3] = biological target: T1, TIM-3 (Homo sapiens, UniProt Q8TDQ0); assay: TIM-3 receptor occupancy on circulating CD14+ monocytes by flow cytometry; type: in vivo
# T1 construct: endogenous in cells; host or cells: circulating CD14+ monocytes in patients' whole blood
# Procedure: TIM-3 receptor occupancy (RO) by TSR-022 on circulating CD14^+ monocytes was measured by flow cytometry. Briefly, whole blood samples from patients treated with TSR-022 were stained with anti-CD14, a non-competing anti-TIM-3 antibody (indicating total TIM-3) and a competing anti-TIM-3 antibody (indicating unbound or free TIM-3). TIM-3 occupancy by infused TSR-022 was estimated as the ratio of free TIM-3 on CD14+ cells to the total TIM-3 on CD14+ cells. A decrease in the ratio indicates an increase in TSR-022 bound TIM-3 receptor. To measure binding in the RO assay, whole blood was collected from patients at baseline (Day 1 predose), 48 hours following the first dose (Day 3) and prior to the second dose (Day 15 predose) for the Q2W schedule. […] Samples for occupancy measurement on the Q3W schedule were collected as follows: Day 1 predose, Day 5, Day 15 and Day 22. Ex vivo TSR-022 saturated healthy donor samples (“sat”) as well as controls lacking detection antibodies (“Bkgd”) were included as controls.
# FIGS. 7A-7C respectively show receptor occupancy studies of the anti-TIM-3 antibody (TSR-022) administered at doses of 1 mg/kg (FIG. 7A), 3 mg/kg (FIG. 7B), and 10 mg/kg (FIG. 7C) every two weeks (Q2W). All samples were pre-dose, with occupancy measured after a single dose on day 1. The occupancy ratio (free TIM-3:total TIM-3) is determined at various time points (for example, timepoints can include day 1, day 3, day 15, day 22, and day 29). The receptor occupancy is maximal on day 3 across doses of TSR-022.
# [4] = Phase 1 dose escalation, safety and tolerability; type: in vivo
# Procedure: The study comprises several parts: dose escalation and cohort expansion. Part 1a of the study (dose escalation) is intended, inter alia, to evaluate the safety, PK, and PDy profile, tolerability and anti-cancer effect of the anti-TIM-3 antibody. […] Part 1a could also comprise the testing of a “flat” dose, or a specific fixed number of milligrams of antibody (as opposed to the weight based dosing mg/kg). Flat doses could range from 200 mg to 1500 mg of anti-TIM-3 antibody. Part 1b of the study (combination with PD1 dose escalation cohorts) is intended, inter alia, to evaluate the safety, PK, and PDy profile, tolerability and anti-cancer effect of the anti-TIM-3 antibody in combination with an anti-PD-1 antibody wherein the anti-TIM-3 antibody is administered as a dose escalation. […] The anti-PD-1 antibody can be dosed at an approved dose and schedule for a marketed agent and on a weight basis at a dose of 3 or 10 mg/kg Q2W or Q3W or on a flat dose basis of 500 mg antibody Q2W or Q3W by using a modified 3+3 design.
# Primary endpoints include determining the safety and tolerability of TSR-022 by Common Terminology Criteria for Adverse Events (CTCAE v4) and to determine the recommended phase 2 dose (RP2D) and schedule for monotherapy and combination with an anti-PD-1 antibody. […]
# [5] = tested on: PARP activity; conditions: various cell lines, DNA damage by hydrogen peroxide, cited from earlier work
Compound,"stable disease as best response ([1]; efficacy evaluable patients, monotherapy Part 1a, 0.03-10 mg/kg Q2W)","partial response as best response ([1]; efficacy evaluable patients, monotherapy, at 10 mg/kg)","tumor reduction ([1]; one patient with metastatic leiomyosarcoma, 3 doses at 10 mg/kg, pending confirmatory imaging) [%]","PK behavior, serum concentration versus time [2]","day through which maximal occupancy is maintained ([3]; 3 mg/kg, single dose on day 1, FIG. 7B) [days]","maintenance of maximal occupancy ([3]; 10 mg/kg, through the days of available data, versus 3 mg/kg, FIG. 7C)",receptor occupancy compared between regimens ([3]; 100 mg Q3W versus 3 mg/kg Q2W),"target coverage in the periphery (receptor occupancy) ([3]; 100 mg flat dose Q3W, single dose on day 1, FIG. 10)","receptor occupancy (RO) ([3]; 300 mg flat dose TSR-022 in combination with 500 mg flat dose TSR-042, FIG. 11)","mean occupancy ratio (free TIM-3:total TIM-3) ([3]; 1, 3, 10 mg/kg and flat doses of 100, 300, 1200 mg, over a range of days, FIG. 12)","receptor occupancy on peripheral monocytes versus exposure ([3]; patients, whole blood, FIG. 6B)","day on which receptor occupancy is maximal ([3]; single dose on day 1, across doses 1, 3, 10 mg/kg, FIGS. 7A-7C) [days]",MTD ([4]; dose escalation continued to 1.0 mg/kg Q2W),"tolerability ([4]; monotherapy, patients)","IC50 ([5]; read-out: IC50, PARP activity in cells) [nM]","IC90 ([5]; read-out: inhibitory concentration at 90% of control (IC90), PARP activity in cells) [nM]"
"TSR-022: humanized monoclonal anti-TIM-3 IgG4 antibody, heavy chain SEQ ID NO: 3, light chain SEQ ID NO: 4, S228 Ser to Pro hinge mutation",5/25,1/25,32,linear PK behavior,≥ 29,comparable results are obtained,comparable to 3 mg/kg Q2W,achieved at 100 mg for the duration of the dosing interval,high RO can be maintained over the measured time period,high occupancy ratios,correlate with TSR-022 exposure,3,a MTD has not yet been identified,well-tolerated across multiple dose levels,,
"NC(=O)c1cccc2cn(-c3ccc([C@@H]4CCCNC4)cc3)nc12 [Niraparib, (3S)-3-[4-{7-(aminocarbonyl)-2H-indazol-2-yl}phenyl]piperidine]",,,,,,,,,,,,,,,~4,~50
